This is an account of results in US20080286287A1.

The experiment concerns the target aggrecan. Description: solid-phase binding assay: aggrecan-coated wells, 10 ng/well IGFBP-2, detected with 125I-IGF-I.

In turn, “HBD-IGFBP-2 mutant (179PKKLRP184 mutated to 179PNNLAP184) (from UniProt P18065 37-325)” returned a reduction in binding (against native IGFBP-2) of 75%.
